Results as given in US20230151084A1, “COMPOSITIONS AND METHODS OF […] CELL RESPONSE” (CASE WESTERN RESERVE UNIVERSITY, priority 2015, published 2023).

System: B cells
Assay: BAFF and APRIL B cell growth (viability signaling in B cells)
Type: cell-based
Conditions: added C5a, compared with disabling B cell C3aR/C5aR signaling, which suppressed growth (FIG. 3)
Text: FIGS. 3(A-B) illustrate graphs showing BAFF and APRIL viability signaling in B cells depends on C3aR/C5aR signaling.
(FIGS. 1(A-C) and FIGS. 2(A-B)). […] (FIGS. 3(A-C)). […] (FIGS. 4(A-B)). Following ova immunization, recipients of adoptively transferred C3ar1^−/−C5ar1^−/− B cells produced reduced IgM Ab and no other isotypes.

B1: C5a: complement anaphylatoxin C5a, ligand of the C5a receptor (C5aR), added to B cells (protein, UniProt P01031 678-751, looked up)
C5a anaphylatoxin: TLQKKIEEIAAKYKHSVVKKCCYDGACVNNDETCEQRAARISLGPRCIKAFTECCVVASQLRANISHKDMQLGR
modifications: C5a anaphylatoxin
notes: complement anaphylatoxin C5a, ligand of the C5a receptor (C5aR), added to B cells
- BAFF and APRIL B cell growth: opposite effect
